Our source for the Kd values is article PMC6002344.

For orientation: Kd means the concentration at which binding is half-saturated. Read a high Kd as a looser complex.

Ends that are not written are not given here. * marks the point of attachment. Dansyl = CN(C)c1cccc2c(S(=O)(=O)*)cccc12

The assay deals with PDZ1 NHERF1 Y38W. Description: FRET or BRET; equilibrium fluorescence titration, FRET between Trp38 (donor) and dansyl (acceptor), excitation 280 nm; 50 mM Na phosphate, pH 7.2, 300 mM NaCl, 5 mM DTT, 20% DMSO, 25 °C; without RS5517. For orientation: Bioluminescence resonance energy transfer reports proximity on the nanometre scale.

B1: Dansyl-NDSLL, dansylated peptide of the C-terminal sequence of the β2-adrenergic receptor (peptide)
peptide: Dansyl-NDSLL
Take B1: the Kd was found to be 10 µM.
